Data taken from publication PMC6066285 (Cell reports, 2018).

Target: the molecule itself
Test: SEC

B1: recombinant FOG-3 (sizing column, Figure S2A) (domain or fragment)
chain: MYTEVRELVNFVCRYLFGHIPRRPVGIFGAELGNYLVSHFSSTWDVHHPKNGEMKRMINTTTSLCFASSAEEAGVPPSDVLRLLPTNMIIFANPGHVFVRLSENGIETPIWIGDVNCDENYQSVPEYVVRTAAIRAE
stoichiometry N: 2
